Source: publication PMC10873877

Target: His-AvrXa27 (Xanthomonas oryzae pv. oryzae, UniProt Q4QS99 1-1136)
Test: EMSA; […]; buffer, […], pH and temperature not stated
Details: protein: recombinant; tags: His (pET-30a); label: Cy5; blunt

B1: Xa13p-14 (dsDNA)
DNA 1: ATCTCCCCCTACTCTACAT
DNA 2: ATGTAGAGTAGGGGGAGAT
  binding result: no binding
